T1: human 5T4 (Homo sapiens, UniProt Q13641)
T1 sequence (Q13641 32-355 limits assumed): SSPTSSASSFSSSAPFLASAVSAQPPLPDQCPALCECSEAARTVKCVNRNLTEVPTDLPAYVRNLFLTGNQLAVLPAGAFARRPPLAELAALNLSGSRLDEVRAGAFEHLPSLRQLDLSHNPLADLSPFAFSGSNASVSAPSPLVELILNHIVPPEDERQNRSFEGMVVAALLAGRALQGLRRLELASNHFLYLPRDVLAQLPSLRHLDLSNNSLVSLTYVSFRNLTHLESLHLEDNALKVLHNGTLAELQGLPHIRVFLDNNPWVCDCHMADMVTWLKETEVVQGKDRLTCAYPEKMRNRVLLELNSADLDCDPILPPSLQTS

T2: unconjugated human TPBG/5T4 protein with a c-terminal polyhistidine and Avi tag (AcroBiosystems Cat. No. … (human, UniProt Q13641 32-355))
T2 construct: Bought protein; also called Acro TPGH52E5; Acro Catalog No. TPGH52E; not shown: C-terminal polyhistidine and Avi tag
T2 sequence: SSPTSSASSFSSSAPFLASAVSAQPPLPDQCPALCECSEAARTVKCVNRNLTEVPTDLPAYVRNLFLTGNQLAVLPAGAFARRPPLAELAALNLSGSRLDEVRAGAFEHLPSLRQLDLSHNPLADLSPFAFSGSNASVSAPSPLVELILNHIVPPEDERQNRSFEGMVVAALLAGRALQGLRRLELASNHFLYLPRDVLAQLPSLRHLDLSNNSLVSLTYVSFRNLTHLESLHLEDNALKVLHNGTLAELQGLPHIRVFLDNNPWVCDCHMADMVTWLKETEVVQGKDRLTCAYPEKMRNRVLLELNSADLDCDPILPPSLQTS


Key:
[1] = Hydrophobic interaction chromatography (HIC) developability; format: physicochemical; conditions: 1 mg/mL in Dulbecco's PBS pH 7.4
Method: Antibodies that were selected for binding to 5T4, such as those described in Examples 2 and 3, were tested by various methods to assess developability. For example, various chromatographic methods, including size exclusion chromatography (SEC), hydrophobic interaction chromatography (HIC), and standup monolayer adsorption chromatography (SMAC) were employed to assess factors, such as monomer percentage, solubility, and antibody aggregation or precipitation.
Hydrophobic interaction chromatography (HIC) analysis was performed using a 4.6 mm ID×3.5 cm TSKgel Butyl-NPR column (Tosoh Bioscience LLC, PN 14947) on an Agilent 1100 HPLC. Antibodies were normalized to 1 mg/mL concentration in Dulbecco's PBS (pH 7.4, without Ca^2+/Mg^2+). The column was equilibrated with 100% mobile phase Buffer A (2 M ammonium sulfate/20 mM sodium phosphate, pH 7.0) at a flow rate of 1 mL/minute at ambient temperature. For each sample, 10 μL was loaded and eluted using a gradient from 100% mobile phase buffer A to 100% mobile phase buffer B (20 mM sodium phosphate, pH 7.0) at 1.0 mL/minute over 15 minutes, held at 100% B for 3 minutes to wash the column, and returned 100% A for 2 minutes for equilibration. Absorbance was monitored at 280 nm. Sample retention time was calculated and compared to a set of standard controls to identify antibodies with increased retention time (increased hydrophobicity) and the presence of multiple species. Data analysis was performed using Agilent ChemStation B.04.03 SP1

human 5T4 = molecular target: T1, human 5T4; assay: Octet monovalent binding affinity assay; set-up: polyhistidine (C); Avi tag (C); purchased Acro Biosystems TPGH52E; conditions: in all three lots of human 5T4
Method: (§1) Monovalent binding assays were employed to determine the relative affinity of each 5T4 binder obtained by the phage display in Example 1 to human 5T4. Human 5T4 was purchased from Acro Biosystems (Acro Catalog No. TPGH52E) and also produced separately. The monovalent interaction of binders to human 5T4 was monitored using an Octet (Pall ForteBio) instrument. For these assays, 36 nM antibody was immobilized on anti-human Fc (AHC) sensors in 1× kinetic buffer (ForteBio). The sensors were then dipped in wells containing a 3× serial dilution of human 5T4 ranging from 1 μM to 1.37 nM. The association was allowed to reach equilibrium. Sensors were then moved to wells containing only 1× kinetic buffer and allowed to dissociate to equilibrium. Association and dissociation rates were measured and from these, monovalent KDS were calculated using the onboard analysis software (ForteBio).

[2] = Protein thermal shift (melting temperature); format: physicochemical
Method: Samples for protein thermal shift experiments (melting temperature) were prepared using the APPLIED BIOSYSTEMS™ PROTEIN THERMAL SHIFT™ Dye Kit (ThermoFisher Scientific Cat. No. 4461146). Data were collected using a QUANTSTUDIO™ 3 instrument (ThermoFisher Scientific Cat. No. A28567) with PROTEIN THERMAL SHIFT™ Software v1.4 (ThermoFisher Scientific Cat. No. 466038). Briefly, PROTEIN THERMAL SHIFT™ dye (1000×) was diluted in water to 8× in deionized water. Samples were prepared on ice by combining 5 μL of PROTEIN THERMAL SHIFT™ Buffer, 12.5 μL of protein solution, and 2.5 μL of the diluted PROTEIN THERMAL SHIFT™ Dye (8×) for a total reaction solution volume of 20 μL. The reaction solution was mixed 10 times with a pipette. Tubes were then spun down at 1000 rpm for 1 minute and then incubated on ice until analysis. Samples were loaded onto the instrument plate, which were then loaded into a QUANTSTUDIO™ 3 Real-Time PCR System instrument. Data was collected using the standard Melt Curve experiment with the following conditions: Step 1 temperature: 25° C. for 2 minutes; Step 2 temperature: 99° C. for 2 minutes with continuous fast ramp mode (Step 1: 1.6° C./sec; Step 2: 0.05° C./sec). Raw melting temperature data were deconvoluted within the QUANTSTUDIO™ 3 analysis software.

[3] = molecular target: T2, unconjugated human TPBG/5T4 protein …; assay: ELISA on coated human 5T4 His-Avi (Acro TPG-H52E5); antibody condition: pH 5.5 Day 14
Method: (§2) A. Normal Binding Unconjugated antibodies were tested for their ability to bind to human 5T4 (hu5T4) using ELISA. On Day 1, unconjugated human TPBG/5T4 protein with a c-terminal polyhistidine and Avi (AVITAG™) tag (AcroBiosystems (Newark, DE, USA), Cat. No. TPG-H52E5) was diluted 2 μg/mL in PBS, mixed thoroughly, plated 100 μL per well in a 96-well plate (Nunc MAXISORP®) and incubated overnight at 4° C.
2. Low pH Stress Test. Several unconjugated antibodies were tested for their ability to bind to 5T4 using ELISA under acidic (low pH) conditions. […]

[4] = molecular target: T2, unconjugated human TPBG/5T4 protein …; assay: Octet, antibody on AHC sensors, human 5T4 in solution (monovalent); Acro TPGH52E5 Lot B465-87AF1-K2
Method: as §1

[5] = molecular target: T2, unconjugated human TPBG/5T4 protein …; assay: ELISA on coated human 5T4 His-Avi (Acro TPG-H52E5); antibody condition: pH 5.5 Day 4
Method: as §2

EC50 [3] [nM] | Kd [4] [nM] | EC50 [5] [nM] | Molecule | developability based on HIC analysis [1] | monovalent binding strength (human 5T4) | CH2 Tm [2] | Fab Tm [2]
0.153 | 2.81 | 0.157 | mAbA17 (antibody, V domains shown, also called Antibody mAbA17) VH: EVQLVESGGGLVQPGGSLRLSCAASGFTFSRYWIHWVRQAPGKGLEWVAAIFPYSGSTLYADSVKGRFTISADTSKNTAYLQMNSLRAEDTAVYYCARSPSRSILPSGLDYWGQGTLVTVSS VL: DIQMTQSPSSLSASVGDRVTITCRASQSVSSAVAWYQQKPGKAPKLLIYSASSLYSGVPSRFSGSRSGTDFTLTISSLQPEDFATYYCQQGDGSPYTFGQGTKVEIKR |  |  |  | 
0.138 | 3.62 | 0.123 | mAbA15 (antibody, V domains shown, also called Antibody mAbA15) VH: EVQLVESGGGLVQPGGSLRLSCAASGFTFSSYYIHWVRQAPGKGLEWVAYITSTGSYTEYADSVKGRFTISADTSKNTAYLQMNSLRAEDTAVYYCARYDRSTRYSGLDYWGQGTLVTVSS VL: DIQMTQSPSSLSASVGDRVTITCRASQSVSSAVAWYQQKPGKAPKLLIYSASSLYSGVPSRFSGSRSGTDFTLTISSLQPEDFATYYCQQAYATPVTFGQGTKVEIKR |  |  |  | 

More lines, now with the values behind:

Molecule | EC50 [3] [nM] | Kd [4] [nM] | EC50 [5] [nM] | developability based on HIC analysis [1] | monovalent binding strength (human 5T4) | CH2 Tm [2] | Fab Tm [2]
mAbA4: 5T4 antibody comprising VH of SEQ ID NO:25 and VL of SEQ ID NO:26 (antibody, V domains shown, Antibody mAbA4 VH Sequence; Antibody mAbA4 VL Sequence) VH: EVQLVESGGGLVQPGGSLRLSCAASGFTFSRYYIHWVRQAPGKGLEWVAFISPGGSYTYYADSVKGRFTISADTSKNTAYLQMNSLRAEDTAVYYCAREYYSMGVLDYWGQGTLVTVSS VL: DIQMTQSPSSLSASVGDRVTITCRASQSVSSAVAWYQQKPGKAPKLLIYSASSLYSGVPSRFSGSRSGTDFTLTISSLQPEDFATYYCQQAYESPYTFGQGTKVEIK |  |  |  | strong developability | strong or moderate binding | 69.18 | 89.94
mAbA15: 5T4 antibody comprising VH of SEQ ID NO:44 and VL of SEQ ID NO:45 (antibody, V domains shown, Antibody mAbA15 VH Sequence; Antibody mAbA15 VL Sequence) VH: EVQLVESGGGLVQPGGSLRLSCAASGFTFSSYYIHWVRQAPGKGLEWVAYITSTGSYTEYADSVKGRFTISADTSKNTAYLQMNSLRAEDTAVYYCARYDRSTRYSGLDYWGQGTLVTVSS VL: DIQMTQSPSSLSASVGDRVTITCRASQSVSSAVAWYQQKPGKAPKLLIYSASSLYSGVPSRFSGSRSGTDFTLTISSLQPEDFATYYCQQAYATPVTFGQGTKVEIK |  |  |  | strong developability | strong or moderate binding | 70.07 | 86.38
mAbA17: 5T4 antibody comprising VH of SEQ ID NO:62 and VL of SEQ ID NO:63 (antibody, V domains shown, Antibody mAbA17 VH Sequence; Antibody mAbA17 VL Sequence) VH: EVQLVESGGGLVQPGGSLRLSCAASGFTFSRYWIHWVRQAPGKGLEWVAAIFPYSGSTLYADSVKGRFTISADTSKNTAYLQMNSLRAEDTAVYYCARSPSRSILPSGLDYWGQGTLVTVSS VL: DIQMTQSPSSLSASVGDRVTITCRASQSVSSAVAWYQQKPGKAPKLLIYSASSLYSGVPSRFSGSRSGTDFTLTISSLQPEDFATYYCQQGDGSPYTFGQGTKVEIK |  |  |  | strong developability | strong or moderate binding | 70.06 | 81.92
mAbA4 (antibody, V domains shown, also called Antibody mAbA4) VH: EVQLVESGGGLVQPGGSLRLSCAASGFTFSRYYIHWVRQAPGKGLEWVAFISPGGSYTYYADSVKGRFTISADTSKNTAYLQMNSLRAEDTAVYYCAREYYSMGVLDYWGQGTLVTVSS VL: DIQMTQSPSSLSASVGDRVTITCRASQSVSSAVAWYQQKPGKAPKLLIYSASSLYSGVPSRFSGSRSGTDFTLTISSLQPEDFATYYCQQAYESPYTFGQGTKVEIKR | 0.122 | 0.01 | 0.125 |  |  |  | 

Reference: patent US20250295803A1, “5T4 ANTIBODY-DRUG CONJUGATES AND USES THEREOF” (EXELIXIS, INC., priority 2022, published 2025)
